Laboratory results from patent publication US20090291081A1.

Legend:
human IL-1β (human) = human IL-1β (human) (UniProt P01584); test: cell-based or functional assay
human IL-1α (human) = human IL-1α (human) (UniProt P01583); test: cell-based or functional assay
Chain of human IL-1α (human) (P01583 113-271 limits assumed): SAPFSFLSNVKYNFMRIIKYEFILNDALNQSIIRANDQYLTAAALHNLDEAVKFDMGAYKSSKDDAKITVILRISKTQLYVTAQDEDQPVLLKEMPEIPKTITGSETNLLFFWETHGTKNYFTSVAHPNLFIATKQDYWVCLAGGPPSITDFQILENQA

Chain of human IL-1β (human) (P01584 117-269 limits assumed): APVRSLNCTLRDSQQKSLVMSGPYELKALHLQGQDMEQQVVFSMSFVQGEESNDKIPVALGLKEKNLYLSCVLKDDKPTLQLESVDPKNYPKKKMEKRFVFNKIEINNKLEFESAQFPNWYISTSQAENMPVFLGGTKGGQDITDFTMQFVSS

| Estimated EC50, IL-1β neutralization (MRC-5) (human IL-1β (human)) | Estimated EC50, IL-1α neutralization (MRC-5) (human IL-1α (human)) | Binder |
| --- | --- | --- |
| 1.3 nM | 30 nM | ABT1-98/ABT2-108-538x scFc (Fc fusion, part only; not given: Domain junction linker and Fc, not shown: a dimerising Fc or GST) chain, part: EVQLLESGGGLVQPGGSLRLSCAASGFTFDGYIMSWVRQAPGKGLEWVSTISPLGSVTYYADSVKGRFTISRDNSKNTLYLQMNSLRAEDTAVYYCAKKGPWFDYWGQGTLVTVSSEVQLLESGGGLVQPGGSLRLSCAASGFTFADEGMMWVRQAPGKGLEWVSRITYSGKNTYYADSVKGRFTISRDNSKNTLYLQMNSLRAEDTAVYYCAKYTGRILGHHLFDYWGQGTLVTVSSGGGGSGGGGSGGGGS |
| < 0.001 nM | 3 nM | ABT2-108-538x/ABT1-98 scFc (Fc fusion, part only; not given: Domain junction linker and Fc, not shown: a dimerising Fc or GST) chain, part: EVQLLESGGGLVQPGGSLRLSCAASGFTFADEGMMWVRQAPGKGLEWVSRITYSGKNTYYADSVKGRFTISRDNSKNTLYLQMNSLRAEDTAVYYCAKYTGRILGHHLFDYWGQGTLVTVSSEVQLLESGGGLVQPGGSLRLSCAASGFTFDGYIMSWVRQAPGKGLEWVSTISPLGSVTYYADSVKGRFTISRDNSKNTLYLQMNSLRAEDTAVYYCAKKGPWFDYWGQGTLVTVSSGGGGSGGGGSGGGGS |
| 1.1 nM | 25 nM | ABT1-207/ABT2-108-538x scFc (Fc fusion, part only; not given: Domain junction linker and Fc, not shown: a dimerising Fc or GST) chain, part: EVQLLESGGGLIQPGGSLRLSCAASGFTFGRYYMSWVRQAPGKGLEWVSSIDYLGTNTYYADSVKGRFTISRDNSKNTLYLQMNSLRAEDTAVYYCAKLTRIRPPNFDYWGQGTLVTVSSEVQLLESGGGLVQPGGSLRLSCAASGFTFADEGMMWVRQAPGKGLEWVSRITYSGKNTYYADSVKGRFTISRDNSKNTLYLQMNSLRAEDTAVYYCAKYTGRILGHHLFDYWGQGTLVTVSSGGGGSGGGGSGGGGS |
| 0.002 nM | 50 nM | ABT2-108-538x/ABT1-207 scFc (Fc fusion, part only; not given: Domain junction linker and Fc, not shown: a dimerising Fc or GST) chain, part: EVQLLESGGGLVQPGGSLRLSCAASGFTFADEGMMWVRQAPGKGLEWVSRITYSGKNTYYADSVKGRFTISRDNSKNTLYLQMNSLRAEDTAVYYCAKYTGRILGHHLFDYWGQGTLVTVSSEVQLLESGGGLIQPGGSLRLSCAASGFTFGRYYMSWVRQAPGKGLEWVSSIDYLGTNTYYADSVKGRFTISRDNSKNTLYLQMNSLRAEDTAVYYCAKLTRIRPPNFDYWGQGTLVTVSSGGGGSGGGGSGGGGS |
